The results in this text go back to article PMC7643134.

For this experiment, the target named is Hydroxynitrile lyase from Parafontaria laminata millipedes, purified from the millipedes (PlamHNL-N) (Parafontaria laminata). In words: SEC. For orientation: Size exclusion chromatography separates by hydrodynamic size, large species first.

By stoichiometry N is commonly meant the number of molecules, sites or subunits per partner or assembly. Consider “Hydroxynitrile lyase from Parafontaria laminata millipedes, purified from the millipedes (PlamHNL-N) (enzyme)”, for which the stoichiometry N stood at 2.
